Each block holds one molecule with its values, some of them ahead of it.
Legend:
[1] = target: DDM1 N terminus (1–148) with K102E and K120E (Arabidopsis thaliana) (UniProt Q9XFH4); assay: pull-down; in vitro pulldown of recombinant CDCA7α N terminus (1-136) with DDM1 N terminus (1-148); blots quantified, averages of nine (CDCA7α mutations) and five (DDM1 mutations) replicates
[2] = target: DDM1 N terminus (1–148) (Arabidopsis thaliana) (UniProt Q9XFH4); assay: as above
[3] = target: T1, CDCA7α N terminus (1–136); assay: pull-down (GST pulldown, anti-His western blot, quantified); conditions: chain shown with the change; n = 5 pulldown replicates; parent: est. 98; read off a plot
T1 chain: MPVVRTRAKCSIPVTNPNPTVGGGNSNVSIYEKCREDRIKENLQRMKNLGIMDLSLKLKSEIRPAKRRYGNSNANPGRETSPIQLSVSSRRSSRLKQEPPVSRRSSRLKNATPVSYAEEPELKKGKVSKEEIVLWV

- loss of binding relative to the WT [1]: 50 % loss
Molecule: CDCA7α N terminus (1–136) (domain or fragment)

- binding relative to the WT [2]: 50 % of the WT
Molecule: CDCA7α N terminus (1–136) with E32K, E41K, E61K and I62A (domain or fragment)

- response [3]: 4
B1: DDM1 N terminus (1–148), Q9XFH4 K102E; K120E; F116A; I124A (protein)
chain: MVSLRSRKVIPASEMVSDGKTEKDASGDSPTSVLNEEENCEEKSVTVVEEEILLAKNGDSSLISEAMAQEEEQLLKLREDEEKANNAGSAVAPNLNETQFTELDELLTQTQLYSEALLEEMEDATINGIESESQKAEPEKTGRGRKRK

From PMC12711577
